Ends that are not written are not given here.
Target: T1, αvβ6 Integrin (human, UniProt P06756 31-1048; P18564 22-788)
T1 construct: whole, on cells; also called αvβ6 Integrin surface antigen
Test: flow cytometry, 10 nM biotinylated binder on human tumor cell lines, Streptavidin-PerCP-Cy5.5
Procedure: The binding capability of peptides or peptidomimetics, of synthetic compounds according to the invention to different cell lines displaying particular targets was investigated by using flow cytometry. Detached cells were incubated with biotinylated peptide/peptidomimetic or biotinylated synthetic compound in blocking buffer for at least 30 min of ice. The cells were washed twice with washing buffer followed by incubation with streptavidin labeled with the Peridinin-chlorophyll protein PerCP-Cy5.5 (BD Biosciences) for 15 minutes on ice. After one additional wash step, samples were analyzed using FACS Canto (at least 10,000 cells per sample were counted) for cells which have bound the biotinylated reagent plus the streptavidin-PerCP-Cy5.5. Overlay histograms of cells incubated with peptide or control peptide were generated and the geometrical mean fluorescence of each sample was determined in FloJo. The EC50 measurements were calculated using Graph Prism software.

T1 sequence (P06756 31-1048, chain 1 of 2): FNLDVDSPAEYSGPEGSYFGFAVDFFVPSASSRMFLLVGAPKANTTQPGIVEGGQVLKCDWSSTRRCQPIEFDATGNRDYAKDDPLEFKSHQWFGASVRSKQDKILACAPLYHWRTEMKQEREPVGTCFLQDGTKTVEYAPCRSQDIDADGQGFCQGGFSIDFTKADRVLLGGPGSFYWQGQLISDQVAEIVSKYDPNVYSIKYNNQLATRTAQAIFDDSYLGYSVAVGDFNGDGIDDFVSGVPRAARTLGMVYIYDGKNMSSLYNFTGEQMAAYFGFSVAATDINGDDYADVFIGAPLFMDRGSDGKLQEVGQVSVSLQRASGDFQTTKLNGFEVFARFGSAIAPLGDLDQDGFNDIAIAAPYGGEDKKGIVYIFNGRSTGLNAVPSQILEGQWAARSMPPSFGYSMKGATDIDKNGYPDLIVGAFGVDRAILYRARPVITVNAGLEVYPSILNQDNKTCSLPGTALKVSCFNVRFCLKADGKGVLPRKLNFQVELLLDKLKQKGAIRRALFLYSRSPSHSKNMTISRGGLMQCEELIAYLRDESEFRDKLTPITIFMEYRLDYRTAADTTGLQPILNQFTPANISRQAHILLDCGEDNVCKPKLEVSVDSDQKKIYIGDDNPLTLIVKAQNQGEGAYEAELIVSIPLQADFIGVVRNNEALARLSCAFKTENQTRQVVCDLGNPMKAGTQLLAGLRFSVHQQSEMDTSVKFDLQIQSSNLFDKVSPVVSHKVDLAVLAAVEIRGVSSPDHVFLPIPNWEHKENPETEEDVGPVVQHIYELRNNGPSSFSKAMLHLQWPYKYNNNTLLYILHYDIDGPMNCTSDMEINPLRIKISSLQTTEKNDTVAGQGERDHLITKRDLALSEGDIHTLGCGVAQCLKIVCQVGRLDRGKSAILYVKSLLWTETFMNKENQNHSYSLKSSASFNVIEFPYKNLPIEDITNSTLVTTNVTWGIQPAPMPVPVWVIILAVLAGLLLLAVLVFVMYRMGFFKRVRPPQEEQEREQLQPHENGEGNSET
T1 sequence (P18564 22-788, chain 2 of 2): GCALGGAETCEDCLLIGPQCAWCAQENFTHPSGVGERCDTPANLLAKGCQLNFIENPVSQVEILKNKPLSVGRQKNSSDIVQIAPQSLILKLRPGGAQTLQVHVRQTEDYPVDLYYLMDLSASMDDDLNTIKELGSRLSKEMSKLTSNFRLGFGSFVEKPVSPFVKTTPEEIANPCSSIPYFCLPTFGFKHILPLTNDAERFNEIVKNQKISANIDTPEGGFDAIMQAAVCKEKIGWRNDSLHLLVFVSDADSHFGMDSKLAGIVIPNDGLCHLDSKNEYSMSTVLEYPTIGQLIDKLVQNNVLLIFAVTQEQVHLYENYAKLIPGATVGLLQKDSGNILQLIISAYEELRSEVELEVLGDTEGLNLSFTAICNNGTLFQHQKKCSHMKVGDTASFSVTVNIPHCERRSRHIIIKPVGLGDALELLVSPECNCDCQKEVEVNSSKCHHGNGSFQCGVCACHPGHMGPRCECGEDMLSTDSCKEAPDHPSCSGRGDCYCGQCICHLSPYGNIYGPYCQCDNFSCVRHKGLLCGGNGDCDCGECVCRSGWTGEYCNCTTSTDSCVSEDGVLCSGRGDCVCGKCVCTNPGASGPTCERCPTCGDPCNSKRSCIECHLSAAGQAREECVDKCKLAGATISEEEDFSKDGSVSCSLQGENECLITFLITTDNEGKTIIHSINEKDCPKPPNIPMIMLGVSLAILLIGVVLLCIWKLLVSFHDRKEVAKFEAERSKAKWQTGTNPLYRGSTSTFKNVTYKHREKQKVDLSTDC

B1: biotinylated peptide binder SEQ ID No 2 targeting αvβ6 Integrin (peptide)
peptide: RGDLATLRQL
modifications: also: biotinylated, site not given here
notes: Synthetic peptide, biotinylated for flow cytometry
binding result: binds

From patent US20220226486A1 (SYNTAB THERAPEUTICS, published 2022)
